Assays:
[1] = system: S. cerevisiae (BY4741) yeast cells; assay: α-Olefin production in Saccharomyces cerevisiae by heterologous expression of orf880; assay type: cell-based; conditions: expressed in S. cerevisiae
Procedure: Genomic DNA encoding Jeotgalicoccus sp. ATCC 8456_orf880 is cloned into the ApaI and XhoI sites of the yeast expression vector pESC-His. S. cerevisiae (BY4741) yeast cells are then transformed with either a plasmid containing orf880 or a plasmid not containing orf880. The transformed yeast cells are cultured under suitable conditions to allow expression of ORF880. The cells are pelleted and then lysed using YeastBuster™ (Novagen, Madison, Wis.). The α-olefins are extracted and analyzed as described in Examples 6 and 7.

[2] = Specific activity of α-olefin and α/β-hydroxy fatty acid formation by purified enzymes; assay type: biochemical; conditions: 500 μM H2O2, 200 μM potassium hexadecanoate
Procedure: The specific activity of α-olefin formation as well as α-(2) and β-(3)hydroxy fatty acid formation were determined for ORF880, CYP152A1, and CYP152A1 Q85H (see Examples 12 and 16). An E. coli BL21 strain (DE3) (Invitrogen) was transformed with either pET15b-orf 880, pET15b-cyp152A1, and pET15b-cyp152A1 Q85H using routine chemical transformation techniques. Protein expression was carried out by first inoculating a colony of the E. coli strain in 5 mL of LB media supplemented with 100 mg/L of carbenicillin and shaken overnight at 37° C. to produce a starter culture. This starter culture was used to inoculate 0.5 L of LB media supplemented with 100 mg/L of carbenicillin. The culture was shaken at 37° C. until an OD600 value of 0.6 was reached. The culture was placed on ice for 10 min before IPTG was added to a final concentration of 250 μM. The culture was shaken at 25° C. for approximately 18 h, and then centrifuged at 3,700 rpm for 20 min at 4° C. The pellet was then resuspended in 10 mL of buffer containing 100 mM sodium phosphate buffer at pH 7.2 supplemented with Bacterial ProteaseArrest (GBiosciences). The cells were then sonicated at 12 W on ice for 9 sec with 1.5 sec of sonication followed by 1.5 sec of rest. This procedure was repeated 5 times with one min intervals between each sonication cycle. The cell free extract was centrifuged at 10,000 rpm for 30 min at 4° C. 5 mL of Ni-NTA (Qiagen) was added to the supernatant, and the mixture was gently stirred at 4° C. The slurry was passed over a column removing the resin from the lysate. The resin was then washed with 30 mL of buffer containing 100 mM sodium phosphate buffer at pH 7.2 plus 30 mM imidazole. Finally, the protein was eluted with 15 mL of 100 mM sodium phosphate buffer at pH 7.2 plus 250 mM imidazole. The protein solution was dialyzed with 200 volumes of 100 mM sodium phosphate buffer at pH 7.2 with 20% glycerol. Protein concentration was determined using the Bradford assay (Biorad). 578 μg/mL of ORF880, 865 μg/mL of CYP152A1, and 653 μg/mL of CYP152A1 Q85H protein was obtained.
To determine the specific activity with potassium hexadecanoate, the following reactions were set-up where each time point consisted of 500 μL. Each reaction contained of 500 μM H2O2, 200 μM of potassium hexadecanoate, 100 mM sodium phosphate buffer at pH 7.2, and protein at the following concentrations: ORF880-0.23 or 0.46 μM; CYP152A1-8.65, 17.3, or 34.6 μM; CYP152A1 Q85H-6.53, 13.06, or 26.12 μM. The reactions were carried out at room temperature and time points were taken at 0, 1, 3, 5, 7, 10, 14, and 20 minutes. Reactions were quenched with 50 μL of 12 M HCl and then extracted with 200 μL of ethyl acetate. 50 μL of this extract was then reacted with 50 μL N,O-Bis(trimethylsilyl)trifluoroacetamide with trimethyl-chlorosilane (Aldrich). Samples were analyzed using GC/MS using the following parameters: run time: 20 min; column: HP-5-MS Part No. 190915-433E (length of 30 meters; I.D.: 0.25 mm narrowbore; film: 0.25 μM); inject: 1 μL Agilent 6850 inlet; inlet: 300° C. splitless; carrier gas: helium; flow: 1.3 mL/min; oven temp: 100° C. hold 5 min, 320° C. at 20° C./min, 320° C. hold 5 min; det: Agilent 5975B VL MSD; det. temp: 300° C.; scan: 50-500 M/Z. Calibration curves were generated using 1-pentadecene, α(2)-hydroxyhexadecanoic acid, and β(3)-hydroxyhexadecanoic acid dissolved in ethyl acetate and derivatized as described herein.
Based upon this analysis, product formation was determined to be linear within the first three minutes. The specific activities for each enzyme concentration in the linear range were averaged for a given reaction (e.g., decarboxylation, α-hydroxylation, or β-hydroxylation). FIG. 21 summarizes the results. The specific activity for 1-pentadecene formation was similar for ORF880 and CYP152A1. Mutating the glutamine 85 residue to a histidine increased the specific activity of 1-pentadecene formation (i.e., increased fatty acid decarboxylase activity). […]

B. subtilis IHA01 = assay: α-Olefin production in Bacillus subtilis by heterologous expression; assay type: cell-based; conditions: 0.05% stearic acid, versus vector only control
Procedure: Genomic DNA encoding Jeotgalicoccus ATCC 8456_orf880 was cloned into the BamHI and XbaI sites of vector pHT01 under the control of the Pgrac promoter. B. subtilis IHA01 (lacA::spec leuB8 metB5 r(−)m(+) Sp, obtained from Bacillus Genetic Stock Center, Columbus, Ohio, strain number BGSC 1A785) was transformed with the resulting vector. The B. subtilis cells were grown at 37° C. in minimal medium supplemented with 2% glucose, 0.3 mM leucine, 0.3 mM methionine, and 10 mg/L chloramphenicol. When the cultures reached an OD600 of 0.8 to 1.0, 1 mM IPTG was added (to induce expression of orf880) along with 0.5 mM 5-amino laevulinic acid (as a precursor for heme biosynthesis) and 0.05% stearic acid (as a substrate for ORF880). The temperature was shifted to 25° C. and after growth for additional 18-24 h at 25° C., cells from a 1 mL culture were pelleted, resuspended in 100 μL methanol, sonicated for 1 h, and extracted with 300 μL ethyl acetate. 300 μL of water was added before separating the organic layer by centrifugation at 15,000 rpm for 5 min. The solvent layer was analyzed by GC-MS.
Genomic DNA encoding Corynebacterium efficiens YS-134 orfCE2459 was cloned into the BamHI and XbaI sites of vector pHT01 under the control of the Pgrac promoter and transformed into B. subtilis IHA01 cells. The resulting cells were grown, extracted, and analyzed as described in Example 9.

B1: ORF880: olefin-producing enzyme (fatty acid decarboxylase) from Jeotgalicoccus sp. ATCC 8456, SEQ ID NO:2 (protein)
chain: MATLKRDKGLDNTLKVLKQGYLYTTNQRNRLNTSVFQTKALGGKPFVVVTGKEGAEMFYNNDVVQREGMLPKRIVNTLFGKGAIHTVDGKKHVDRKALFMSLMTEGNLNYVRELTRTLWHANTQRMESMDEVNIYRESIVLLTKVGTRWAGVQAPPEDIERIATDMDIMIDSFRALGGAFKGYKASKEARRRVEDWLEEQIIETRKGNIHPPEGTALYEFAHWEDYLGNPMDSRTCAIDLMNTFRPLIAINRFVSFGLHAMNENPITREKIKSEPDYAYKFAQEVRRYYPFVPFLPGKAKVDIDFQGVTIPAGVGLALDVYGTTHDESLWDDPNEFRPERFETWDGSPFDLIPQGGGDYWTNHRCAGEWITVIIMEETMKYFAEKITYDVPEQDLEVDLNSIPGYVKSGFVIKNVREVVDRT
modifications: Jeotgalicoccus sp. ATCC8456
[1]
  α-olefin production: produces α-olefins
[2]
  rate of hydroxyhexadecanoic acid production relative to the rates of the two CYP152A1 enzymes: about 1/50
[2]; pH 7.2, room temperature, comparison between enzymes
  specific activity for 1-pentadecene formation: similar
B. subtilis IHA01
  α-olefin produced from stearic acid: 1-heptadecene

From patent publication US8597922B2, “Methods and compositions for producing olefins” (LS9, Inc., priority 2007, dated 2013)
